Experimental data reported in patent publication US20200231684A1 (published 2020).
Substitutions are numbered along the chain they refer to.

T1: human IL-36R on cells (human, UniProt Q9HB29 20-575)
T1 sequence (looked up): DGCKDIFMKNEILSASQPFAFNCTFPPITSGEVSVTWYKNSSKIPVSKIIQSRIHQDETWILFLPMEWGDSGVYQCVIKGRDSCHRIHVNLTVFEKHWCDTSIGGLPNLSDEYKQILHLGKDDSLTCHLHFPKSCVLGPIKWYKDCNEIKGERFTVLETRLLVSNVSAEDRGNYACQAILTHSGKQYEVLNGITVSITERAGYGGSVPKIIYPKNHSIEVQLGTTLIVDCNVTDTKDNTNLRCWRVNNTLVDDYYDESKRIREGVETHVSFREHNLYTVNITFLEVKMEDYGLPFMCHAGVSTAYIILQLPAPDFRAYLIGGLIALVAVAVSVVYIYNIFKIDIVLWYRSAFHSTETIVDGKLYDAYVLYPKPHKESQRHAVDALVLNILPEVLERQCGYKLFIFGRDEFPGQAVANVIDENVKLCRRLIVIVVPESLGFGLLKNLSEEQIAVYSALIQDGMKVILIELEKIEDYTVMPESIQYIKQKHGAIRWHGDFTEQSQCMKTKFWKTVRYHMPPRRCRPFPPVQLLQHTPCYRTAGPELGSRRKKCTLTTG

T2: mouse IL-36R (mouse, UniProt Q9ERS7 22-338)
T2 sequence (looked up): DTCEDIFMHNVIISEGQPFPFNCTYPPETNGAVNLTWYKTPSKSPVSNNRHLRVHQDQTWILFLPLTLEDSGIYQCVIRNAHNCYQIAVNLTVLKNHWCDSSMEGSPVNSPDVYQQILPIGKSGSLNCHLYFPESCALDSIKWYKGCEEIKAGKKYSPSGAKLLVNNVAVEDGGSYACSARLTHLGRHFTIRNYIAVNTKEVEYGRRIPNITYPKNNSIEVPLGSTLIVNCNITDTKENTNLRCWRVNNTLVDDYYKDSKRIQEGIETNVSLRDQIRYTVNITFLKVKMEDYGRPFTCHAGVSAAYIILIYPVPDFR

T3: human IL-1R1 (human, UniProt P14778 18-336, limits assumed)
T3 construct: also called IL-1RI
T3 sequence (looked up): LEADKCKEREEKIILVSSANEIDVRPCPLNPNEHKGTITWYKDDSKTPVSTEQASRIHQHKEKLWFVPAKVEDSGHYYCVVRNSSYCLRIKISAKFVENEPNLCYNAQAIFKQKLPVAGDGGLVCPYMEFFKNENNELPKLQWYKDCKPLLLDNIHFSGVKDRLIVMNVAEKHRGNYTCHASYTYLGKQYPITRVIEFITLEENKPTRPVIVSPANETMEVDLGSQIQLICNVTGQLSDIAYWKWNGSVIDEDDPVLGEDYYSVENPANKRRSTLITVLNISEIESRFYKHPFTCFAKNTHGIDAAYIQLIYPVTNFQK

B1: chimeric antibody C73C5 (antibody, V domains shown)
VH: QVQLKESGPGLVAPSQSLSITCTVSGFSLTNYAVHWVRQFPGKGLEWLGVIWSDGSTDFNAPFKSRLSINKDNSKSQVFFKMNSLQIDDTAIYYCARKGGYSGSWFAYWGQGTLVTVSA
VL: DIVMTQSQKFLSTSVGVRVSVTCKASQDVGTNVLWYQQKIGQSPKPLIYSASYRHSGVPDRFTGSGSGTDFTLIISNVQSEDLAEYFCQQYSRYPLTFGPGTKLELK
notes: Mouse variable domains of 73C5 on human constant domains (hu IgG1KO/kappa); also called chimeric 73C5
B2: chimeric antibody C33D10 (antibody, V domains shown)
VH: QVQLQQSGTELLKPGASVKLSCKASGNTVTSYWMHWVKQRPGQGLEWIGEILPSTGRTNYNENFKGKAMLTVDKSSSTAYMQLSSLASEDSAVYYCTIVYFGNPWFAYWGQGTLVTVSA
VL: QIVLTQSPAIMSASLGERVTMTCTASSSVSSSYLHWYQKKPGSSPKLWVYSTSNLASGVPVRFSGSGSGTSYSLTISSMEAEDAATYYCHQHHRSPVTFGSGTKLEMK
notes: Mouse variable domains of 33D10 on human constant domains (hu IgG1KO/kappa); also called chimeric 33D10
B3: chimeric antibody C81B4 (antibody, V domains shown)
VH: QVQLQQPGADFVRPGASMRLSCKASGYSFTSSWIHWVKQRPGQGLEWIGEINPGNVRTNYNENFRNKATLTVDKSSTTAYMQLRSLTSADSAVYYCTVVFYGEPYFPYWGQGTLVTVSA
VL: B2 VL with L34F, K39Q, V49I, S51R, V61G, H92F, V97L, S101A, M107L
notes: Mouse variable domains of 81B4 on human constant domains (hu IgG1KO/kappa); also called chimeric 81B4
B4: chimeric antibody C81A1 (antibody, V domains shown)
VH: QVQLKESGPGLVAPSQSLFITCTVSGFSLSSYEINWVRQVPGKGLEWLGVIWTGITTNYNSALISRLSISKDNSKSLVFLKMNSLQTDDTAIYYCARGTGTGFYYAMDYWGQGTSVTVSS
VL: DIQMTQTTSSLSASLGDRVTISCRASQDIYKYLNWYQQKPDGTLKLLIYYTSGLHSGVPSRFSGSGSGTDFSLTISNLEPEDIATYFCQQDSKFPWTFGGDTKLEIK
notes: Mouse variable domains of 81A1 on human constant domains (hu IgG1KO/kappa); also called chimeric 81A1
B5: chimeric antibody of 67E7 (antibody, V domains shown)
VH: EVQLQQSGAEFVRPGASVKFSCTASGFNIKDDYIHWVRQRPEQGLEWVGRIDPANGNTKYAPKFQDKATITADTSSNTAYLQLSSLTSEDTAVYYCAKSFPNNYYSYDDAFAYWGQGTLVTVSA
VL: DIQMTQSPASQSASLGESVTFTCLASQTIGTWLGWYQQKPGKSPQLLIYRSTTLADGVPSRFSGSGSGTKFSFKISSLQAADFASYYCQQLYSAPYTFGGGTKLEIR
notes: No own label printed; also called chimeric 67E7
B6: chimeric antibody of 89A12 (antibody, V domains shown)
VH: B5 VH with F11L, K19R, F20L, E42K, V48L, A61D, K63R, Q82H, N102D
VL: B5 VL with T22S, S51A, T53S, K70N, A81E, F83L, A94G
notes: No own label printed; also called chimeric 89A12
B7: chimeric antibody of 73F6 (antibody, V domains shown)
VH: B1 VH with F59Y, I87T
VL: B1 VL with P46A, S76T
notes: No own label printed; also called chimeric 73F6
B8: chimeric antibody of 172C8 (antibody, V domains shown)
VH: EVQLQQSGPELVKPGASVKLSCKASGYTFTDNYMNWVRQSHGKSLEWIGRVNPSNGDTKYNQNFKGKATLTVDKSLSTAYMQLNGLTSEDSAVYYCGRTKNFYSSYSYDDAMDYWGQGTSVTVSS
VL: DIQMTQSPASQSASLGESVTFTCLASQTIGTWLAWYQQRPGKSPQLLIYAATSLADGVPSRFSGSGSGTQFSFNIRSLQAEDFASYYCQQVYTTPLTFGGGTKLEIK
notes: No own label printed; also called chimeric 172C8
B9: chimeric antibody of 78C8 (antibody, V domains shown)
VH: QVQLKESGPVLVAPSQSLSITCTVSGFSLTKFGVHWIRQTPGKGLEWLGVIWAGGPTNYNSALMSRLTISKDISQSQVFLRIDSLQTDDTAMYYCAKQIYYSTLVDYWGQGTSVTVSS
VL: DVLLTQTPLSLPVSLGDQASISCRSSQNIVHSNGNTYLQWYLQKPGQSPKLLIYKVSNRFSGVPDRFSGSGSGTDFTLKISRVEAEDLGVYYCFQGSHVPFTFGAGTKLELK
notes: No own label printed; also called chimeric 78C8
B10: chimeric antibody of 76E10 (antibody, V domains shown)
VH: QVQLKESGPVLVAPSQSLSITCTVSGFSLTNYGVHWVRQPPGKGLEWLGVIWPVGSTNYNSALMSRLSIHKDNSKSQVFLRMNSLQTDDTAIYYCAKMDWDDFFDYWGQGTTLTVSS
VL: DIVMTQSQKFMSATVGGRVNITCKASQNVGRAVAWYQQKPGQSPKLLTHSASNRYTGVPDRFTGSGSGTDFTLTITNMQSEDLADYFCQQYSSYPLTFGAGTKLDLK
notes: No own label printed; also called chimeric 76E10

biological target: T1, human IL-36R on cells; assay: cell-based or functional assay

IC90, IL-8 release, NCI/ADR-RES cells, trun-IL-36a [nM] | IC90, IL-8 release, NCI/ADR-RES cells, trun-IL-36b [nM] | IC90, IL-8 release, NCI/ADR-RES cells, trun-IL-36g [nM] | IC90, pNFκB, NCI/ADR-RES cells, trun-IL-36a [nM] | IC90, pNFκB, NCI/ADR-RES cells, trun-IL-36b [nM] | IC90, pNFκB, NCI/ADR-RES cells, trun-IL-36g [nM] | Binder
0.7 | 0.4 | 0.4 | 2.1 | 0.9 | 1.8 | B1
0.4 | 0.3 | 0.2 | 1.9 | 2 | 1.3 | B2
0.4 | 0.1 | 0.1 | 1.3 | 0.9 | 0.4 | B3

biological target: T1, human IL-36R on cells; assay: cell-based or functional assay; remark: another data set of the same source

IC90, IL-8 release, human primary keratinocytes (NHK), trun-IL-36a [nM] | IC90, IL-8 release, human primary keratinocytes (NHK), trun-IL-36b [nM] | IC90, IL-8 release, human primary keratinocytes (NHK), trun-IL-36g [nM] | IC90, pNFκB, human primary keratinocytes (NHK), trun-IL-36b [nM] | Binder
29.7 | 49.3 | 3.6 | 8.3 | B1
23.4 | 87 | 1.2 | 7.1 | B4
1.2 | 11.1 | 0.3 | 1.8 | B3

biological target: T2, mouse IL-36R; assay: BLI (Fortebio Octet), antibody injected over antigen surface
Experimental: (§1) B) Molecular selectivity over mouse IL-36R and human IL-1R1 The mouse and chimeric anti-IL-36R antibodies were also injected over either a mouse IL-36R or a human IL-1R1 surface at a concentration of 100 nM. The binding signal to mouse IL-36R and to human IL-1R1 for these antibodies measured using the Fortebio Octet (Fortebio, Menlo Park, Calif.) is zero, which indicates these antibodies selectively bind to human IL-36R.

binding result | Binder
no binding (tested: 100 nM) | B5
no binding (tested: 100 nM) | B6
no binding (tested: 100 nM) | B1
no binding (tested: 100 nM) | B7
no binding (tested: 100 nM) | B8
no binding (tested: 100 nM) | B9
no binding (tested: 100 nM) | B4
no binding (tested: 100 nM) | B10
no binding (tested: 100 nM) | B2
no binding (tested: 100 nM) | B3

biological target: T3, human IL-1R1; assay: as above
Experimental: as §1

binding result | Binder
no binding (tested: 100 nM) | B5
no binding (tested: 100 nM) | B6
no binding (tested: 100 nM) | B1
no binding (tested: 100 nM) | B7
no binding (tested: 100 nM) | B8
no binding (tested: 100 nM) | B9
no binding (tested: 100 nM) | B4
no binding (tested: 100 nM) | B10
no binding (tested: 100 nM) | B2
no binding (tested: 100 nM) | B3
